# Laboratory results as given in PMC3204175.
# Target: CALM_(2091)AF10 (human) (UniProt Q13492)
# Assay: FRET or BRET
substance,measurement,value
CALM_(2091)AF10 (from UniProt Q13492 1-648),average FRET efficiency,13%
same,mean donor photobleaching decay constant (CFP with YFP; CFP alone 0.72),0.5
